Assay results: US12099068B2, “Biomarkers for graft-versus-host disease” (Incyte Corporation, priority 2018, dated 2024)

B1: SMOC2 (protein, UniProt Q9H3U7 22-446, looked up)
SPARC-related modular …: QKFSALTFLRVDQDKDKDCSLDCAGSPQKPLCASDGRTFLSRCEFQRAKCKDPQLEIAYRGNCKDVSRCVAERKYTQEQARKEFQQVFIPECNDDGTYSQVQCHSYTGYCWCVTPNGRPISGTAVAHKTPRCPGSVNEKLPQREGTGKTDDAAAPALETQPQGDEEDIASRYPTLWTEQVKSRQNKTNKNSVSSCDQEHQSALEEAKQPKNDNVVIPECAHGGLYKPVQCHPSTGYCWCVLVDTGRPIPGTSTRYEQPKCDNTARAHPAKARDLYKGRQLQGCPGAKKHEFLTSVLDALSTDMVHAASDPSSSSGRLSEPDPSHTLEERVVHWYFKLLDKNSSGDIGKKEIKPFKRFLRKKSKPKKCVKKFVEYCDVNNDKSISVQELMGCLGVAKEDGKADTKKRHTPRGHAESTSNRQPRKQG
B2: CRKL (protein, UniProt P46109 1-303, looked up)
Crk-like protein: MSSARFDSSDRSAWYMGPVSRQEAQTRLQGQRHGMFLVRDSSTCPGDYVLSVSENSRVSHYIINSLPNRRFKIGDQEFDHLPALLEFYKIHYLDTTTLIEPAPRYPSPPMGSVSAPNLPTAEDNLEYVRTLYDFPGNDAEDLPFKKGEILVIIEKPEEQWWSARNKDGRVGMIPVPYVEKLVRSSPHGKHGNRNSNSYGIPEPAHAYAQPQTTTPLPAVSGSPGAAITPLPSTQNGPVFAKAIQKRVPCAYDKTALALEVGDIVKVTRMNINGQWEGEVNGRKGLFPFTHVKIFDPQNPDENE
B3: IRAK1 (protein, UniProt P51617 1-712, looked up)
Interleukin-1 …: MAGGPGPGEPAAPGAQHFLYEVPPWVMCRFYKVMDALEPADWCQFAALIVRDQTELRLCERSGQRTASVLWPWINRNARVADLVHILTHLQLLRARDIITAWHPPAPLPSPGTTAPRPSSIPAPAEAEAWSPRKLPSSASTFLSPAFPGSQTHSGPELGLVPSPASLWPPPPSPAPSSTKPGPESSVSLLQGARPFPFCWPLCEISRGTHNFSEELKIGEGGFGCVYRAVMRNTVYAVKRLKENADLEWTAVKQSFLTEVEQLSRFRHPNIVDFAGYCAQNGFYCLVYGFLPNGSLEDRLHCQTQACPPLSWPQRLDILLGTARAIQFLHQDSPSLIHGDIKSSNVLLDERLTPKLGDFGLARFSRFAGSSPSQSSMVARTQTVRGTLAYLPEEYIKTGRLAVDTDTFSFGVVVLETLAGQRAVKTHGARTKYLKDLVEEEAEEAGVALRSTQSTLQAGLAADAWAAPIAMQIYKKHLDPRPGPCPPELGLGLGQLACCCLHRRAKRRPPMTQVYERLEKLQAVVAGVPGHSEAASCIPPSPQENSYVSSTGRAHSGAAPWQPLAAPSGASAQAAEQLQRGPNQPVESDESLGGLSAALRSWHLTPSCPLDPAPLREAGCPQGDTAGESSWGSGPGSRPTAVEGLALGSSASSSSEPPQIIINPARQKMVQKLALYEDGALDSLQLLSSSSLPGLGLEQDRQGPEESDEFQS
B4: PILRA (protein, UniProt Q9UKJ1 20-303, looked up)
Paired immunoglobulin-like …: QPSGSTGSGPSYLYGVTQPKHLSASMGGSVEIPFSFYYPWELATAPDVRISWRRGHFHRQSFYSTRPPSIHKDYVNRLFLNWTEGQKSGFLRISNLQKQDQSVYFCRVELDTRSSGRQQWQSIEGTKLSITQAVTTTTQRPSSMTTTWRLSSTTTTTGLRVTQGKRRSDSWHISLETAVGVAVAVTVLGIMILGLICLLRWRRRKGQQRTKATTPAREPFQNTEEPYENIRNEGQNTDPKLNPKDDGIVYASLALSSSTSPRAPPSHRPLKSPQNETLYSVLKA
B5: DFFA (protein, UniProt O00273 1-331, looked up)
DNA fragmentation factor …: MEVTGDAGVPESGEIRTLKPCLLRRNYSREQHGVAASCLEDLRSKACDILAIDKSLTPVTLVLAEDGTIVDDDDYFLCLPSNTKFVALASNEKWAYNNSDGGTAWISQESFDVDETDSGAGLKWKNVARQLKEDLSSIILLSEEDLQMLVDAPCSDLAQELRQSCATVQRLQHTLQQVLDQREEVRQSKQLLQLYLQALEKEGSLLSKQEESKAAFGEEVDAVDTGISRETSSDVALASHILTALREKQAPELSLSSQDLELVTKEDPKALAVALNWDIKKTETVQEACERELALRLQQTQSLHSLRSISASKASPPGDLQNPKRARQDPT
B6: ANG-1 (protein, UniProt Q15389 16-498, looked up)
Angiopoietin-1: HIGCSNQRRSPENSGRRYNRIQHGQCAYTFILPEHDGNCRESTTDQYNTNALQRDAPHVEPDFSSQKLQHLEHVMENYTQWLQKLENYIVENMKSEMAQIQQNAVQNHTATMLEIGTSLLSQTAEQTRKLTDVETQVLNQTSRLEIQLLENSLSTYKLEKQLLQQTNEILKIHEKNSLLEHKILEMEGKHKEELDTLKEEKENLQGLVTRQTYIIQELEKQLNRATTNNSVLQKQQLELMDTVHNLVNLCTKEGVLLKGGKREEEKPFRDCADVYQAGFNKSGIYTIYINNMPEPKKVFCNMDVNGGGWTVIQHREDGSLDFQRGWKEYKMGFGNPSGEYWLGNEFIFAITSQRQYMLRIELMDWEGNRAYSQYDRFHIGNEKQNYRLYLKGHTGTAGKQSSLILHGADFSTKDADNDNCMCKCALMLTGGWWFDACGPSNLNGMFYTAGQNHGKLNGIKWHYFKGPSYSLRSTTMMIRPLDF
B7: CCL5 (protein, UniProt P13501 24-91, looked up)
C-C motif chemokine 5: SPYSSDTTPCCFAYIARPLPRAHIKEYFYTSGKCSNPAVVFVTRKNRQVCANPEKKWVREYINSLEMS
B8: PRTN3 (protein, UniProt P24158 28-248, looked up)
Myeloblastin: IVGGHEAQPHSRPYMASLQMRGNPGSHFCGGTLIHPSFVLTAAHCLRDIPQRLVNVVLGAHNVRTQEPTQQHFSVAQVFLNNYDAENKLNDVLLIQLSSPANLSASVATVQLPQQDQPVPHGTQCLAMGWGRVGAHDPPAQVLQELNVTVVTFFCRPHNICTFVPRRKAGICFGDSGGPLICDGIIQGIDSFVIWGCATRLFPDFFTRVALYVDWIRSTLR
B9: MAP2K6 (protein, UniProt P52564 1-334, looked up)
Dual specificity …: MSQSKGKKRNPGLKIPKEAFEQPQTSSTPPRDLDSKACISIGNQNFEVKADDLEPIMELGRGAYGVVEKMRHVPSGQIMAVKRIRATVNSQEQKRLLMDLDISMRTVDCPFTVTFYGALFREGDVWICMELMDTSLDKFYKQVIDKGQTIPEDILGKIAVSIVKALEHLHSKLSVIHRDVKPSNVLINALGQVKMCDFGISGYLVDSVAKTIDAGCKPYMAPERINPELNQKGYSVKSDIWSLGITMIELAILRFPYDSWGTPFQQLKQVVEEPSPQLPADKFSAEFVDFTSQCLKKNSKERPTYPELMQHPFFTLHESKGTDVASFVKLILGD
B10: STX6 (protein, UniProt O43752 2-255, looked up)
Syntaxin-6: SMEDPFFVVKGEVQKAVNTAQGLFQRWTELLQDPSTATREEIDWTTNELRNNLRSIEWDLEDLDETISIVEANPRKFNLDATELSIRKAFITSTRQVVRDMKDQMSTSSVQALAERKNRQALLGDSGSQNWSTGTTDKYGRLDRELQRANSHFIEEQQAQQQLIVEQQDEQLELVSGSIGVLKNMSQRIGGELEEQAVMLEDFSHELESTQSRLDNVMKKLAKVSHMTSDRRQWCAIAILFAVLLVVLILFLVL
B11: PPP1R2 (protein, UniProt P41236 2-205, looked up)
Protein phosphatase inhibitor …: AASTASHRPIKGILKNKTSTTSSMVASAEQPRGNVDEELSKKSQKWDEMNILATYHPADKDYGLMKIDEPSTPYHSMMGDDEDACSDTEATEAMAPDILARKLAAAEGLEPKYRIQEQESSGEEDSDLSPEEREKKRQFEMKRKLHYNEGLNIKLARQLISKDLHDDDEDEEMLETADGESMNTEESNQGSTPSDQQQNKLRSS

Test system: plasma proteins
Assay: Plasma proteins modulated between baseline and day 28 in responders (CR, VGPR, PR; n = 19), Example 6 (Table 13)
Type: in vivo, human
Conditions: plasma protein (OLINK NPX); responders (CR, VGPR, PR; n = 19); itacitinib 200 mg or 300 mg QD with corticosteroids; day 28 vs baseline
Method: Due to the limited sample size, steroid-naive (N=10) and steroid-refractory (N=18) patients were combined for further analysis. Broad proteomic analysis of over 1000 proteins was conducted by OLINK Proteomics (Watertown, MA) using a proximity extension assay as described by the manufacturer. Data are presented as normalized protein expression (NPX) in log 2 scale. Statistical differences were evaluated using unpaired and paired t tests, one-way […] (ANOVA), and Pearson Correlation. Significance was conferred when P<0.05.
Longitudinal differences in protein expression were analyzed by evaluating plasma samples from baseline/screening and day 28.

Molecule	Fold Change, Increased Expression from Baseline to Day 28	Fold Change, Decreased Expression from Baseline to Day 28
B1	1.2842	–
B2	–	−1.8003
B3	–	−1.2986
B4	–	−1.2582
B5	–	−1.31
B6	–	−1.7898
B7	–	−1.6357
B8	–	−1.7658
B9	–	−1.8184
B10	–	−1.4715
B11	–	−1.3339
